In patent publication US20220281976A1 (Alector, published 2022):

Columns and labels:
[1] = target: T1, human CD33 (human, UniProt P20138 18-364); test: cell-based or functional assay
[2] = target: T2, mouse CD33 Fc fusion protein (mouse, UniProt Q63994 18-240, limits assumed); test: ForteBio BLI or MSD-SET
T2 construct: also called mCD33-Fc
T2 sequence: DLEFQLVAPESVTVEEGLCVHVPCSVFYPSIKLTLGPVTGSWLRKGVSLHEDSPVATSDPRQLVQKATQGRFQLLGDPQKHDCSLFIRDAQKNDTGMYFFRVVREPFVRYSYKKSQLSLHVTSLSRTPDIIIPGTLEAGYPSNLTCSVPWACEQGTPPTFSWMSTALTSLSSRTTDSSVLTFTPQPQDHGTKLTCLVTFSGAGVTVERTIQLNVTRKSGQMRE

[3] = target: T3, human CD33 Fc fusion protein (human, UniProt P20138 18-259); test: ForteBio BLI or MSD-SET, IgG, avid;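 further: Anti-CD33 IgG affinity by BLI, IgG captured on AHQ sensors with antigen in solution and a one-to-one kinetic fit, or by MSD solution equilibrium titration with quadratic fit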
T3 construct: also called hCD33-Fc; human CD33/Fc chimera (R&D Systems)
T3 sequence (P20138 18-259 limits assumed): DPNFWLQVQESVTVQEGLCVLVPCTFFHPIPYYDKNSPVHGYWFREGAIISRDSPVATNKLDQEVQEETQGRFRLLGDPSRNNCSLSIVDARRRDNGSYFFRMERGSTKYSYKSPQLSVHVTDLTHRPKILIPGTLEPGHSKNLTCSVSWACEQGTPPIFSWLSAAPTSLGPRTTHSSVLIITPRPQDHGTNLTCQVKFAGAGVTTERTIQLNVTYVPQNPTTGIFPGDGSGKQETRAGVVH
Experimental: The binding affinity of each anti-CD33 antibody was determined by measuring their KD by ForteBio or MSD-SET. […] Briefly, ForteBio affinity measurements were performed by loading IgGs on-line onto AHQ sensors. Sensors were equilibrated off-line in assay buffer for 30 min and then monitored on-line for 60 seconds for baseline establishment. Sensors with loaded IgGs were exposed to 100 nM antigen for 5 minutes, then transferred to assay buffer for 5 min for off-rate measurement. Kinetics were analyzed using the 1:1 binding model.
Solution equilibrium titrations (SET) were performed in PBS+0.1% IgG-Free BSA (PBSF) with antigen held constant at 50 pM and incubated with 3-to 5-fold serial dilutions of antibody starting at 10 nM. Antibodies (20 nM in PBS) were coated onto standard bind MSD-ECL plates overnight at 4° C. or at room temperature for 30 min. Plates were then blocked for 30 min with shaking at 700 rpm, followed by three washes with wash buffer (PBSF+0.05% Tween 20). SET samples were applied and incubated on the plates for 150s with shaking at 700 rpm followed by one wash. Antigen captured on a plate was detected with 250 ng/mL sulfotag-labeled streptavidin in PBSF by incubation on the plate for 3 min. The plates were washed three times with wash buffer and then read on the MSD Sector Imager 2400 instrument using 1× Read Buffer T with surfactant. The percent free antigen was plotted as a function of titrated antibody in Prism and fit to a quadratic equation to extract the KD. To improve throughput, liquid handling robots were used throughout MSD-SET experiments, including SET sample preparation.

[4] = target: T1, human CD33; test: flow cytometry, human primary T cells;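 further: binding of anti-CD33 antibodies at 10 ug/ml to human primary T cells, 1 h on ice, detected with PE-labelled secondary antibody, read as flow cytometry MFI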
[5] = target: T1, human CD33; test: flow cytometry, human primary monocytes; design: reference not given here;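 further: binding of anti-CD33 antibodies at 10 ug/ml to human primary monocytes, 1 h on ice, detected by PE-labelled secondary antibody, flow cytometry readout as mean fluorescence intensity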
[6] = target: T1, human CD33; test: flow cytometry, human primary macrophages;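 further: binding of CD33 antibodies at 10 µg/ml to human primary macrophages, 1 h on ice, detected with PE-labelled secondary antibody by flow cytometry, reported as MFI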
[7] = target: T1, human CD33; test: flow cytometry, human primary dendritic cells;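 further: binding of anti-CD33 antibodies (10 ug/ml, 1 h on ice) to human primary dendritic cells, detected with a PE-labelled secondary antibody, reported as flow cytometry MFI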
Experimental: Initial characterization of CD33 antibodies involved determining their ability to bind CD33 expressed on a CHO cell line, on human primary monocytes, human primary macrophages, human primary dendritic cells, and on human primary T cells. Cells were harvested, plated at 10⁶/ml in a 96 well plate, and incubated in 100 ul PBS containing 2% FBS, 2 mM EDTA and 10 ug/ml Mab and Fc blocking reagent for 1 hour in ice. Cells were washed twice and incubated in 100 ul PBS containing 2% FBS, 2 mM EDTA and 5 ug/ml PE-conjugated secondary antibody for 30 minutes on ice. Cells were washed twice in cold PBS and analyze by flow cytometry on a BD FACS Canto. Data analysis and calculation of MFI values was performed with FlowJo (TreeStar) software version 10.0.7.

[8] = target: T4, human monomeric His tagged CD33 protein (human, UniProt P20138 18-259); test: ForteBio BLI or MSD-SET, IgG, monomeric antigen;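 further: BLI: antibodies captured on AHQ sensors, 100 nM antigen association 5 min, dissociation 5 min, 1:1 fit. MSD-SET: antigen fixed at 50 pM, antibody titrated, quadratic fit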
T4 construct: also called hCD33-His
T4 sequence (P20138 18-259 limits assumed): as above

[9] = target: T3, human CD33 Fc fusion protein; test: RBC adhesion to plate-bound CD33-Fc; antibody 0.5 ug/ml;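 further: Plate-coated CD33-Fc preincubated 1 h with antibody, then red blood cells added for 1 h at room temperature, adherent cells lysed and quantified via peroxidase activity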
[10] = target: T3, human CD33 Fc fusion protein; test: RBC adhesion to plate-bound CD33-Fc; antibody 1.0 ug/ml;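 further: red blood cells adhering to plate-coated CD33-Fc after 1 h antibody pretreatment, then 1 h at room temperature, bound cells read as peroxidase activity after lysis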

T1 sequence (P20138 18-364): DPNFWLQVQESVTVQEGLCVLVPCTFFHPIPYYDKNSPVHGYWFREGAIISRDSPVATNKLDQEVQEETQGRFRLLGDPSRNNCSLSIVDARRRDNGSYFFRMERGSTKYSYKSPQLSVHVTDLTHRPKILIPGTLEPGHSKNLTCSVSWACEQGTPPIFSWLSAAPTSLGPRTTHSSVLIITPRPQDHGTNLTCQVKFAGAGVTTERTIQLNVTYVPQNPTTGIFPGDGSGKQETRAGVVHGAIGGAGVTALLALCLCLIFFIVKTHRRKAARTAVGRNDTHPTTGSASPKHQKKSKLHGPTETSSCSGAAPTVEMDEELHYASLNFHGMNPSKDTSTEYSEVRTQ

Binder	Percent CD33 Surface Expression, DC % CD33 [1] [%]	Percent CD33 Surface Expression, Monocyte % CD33 [1] [%]	binding result [2]	Kd [3] [nM]	T cell MFI [4]	Monocyte MFI [5]	Macrophage MFI [6]	DC MFI [7]	Kd [8] [nM]	Percent RBC Binding to CD33 [9] [%]	Percent RBC Binding to CD33 [10] [%]	Percent CD33 Surface Expression, Macrophage % CD33 [1] [%]
C-77 (antibody, V domains shown, human IgG1) VH: not shown VL: DIVLTQSPDSLAVSLGERATINCKSSQSVLYSSNNKNYLAWYQQKPGQAPRLLIYGASSRATGIPDRFSGSGSGTDFTLTISRLEPEDFAVYYCQQDYVSPLTFGGGTKVEIK	84.2	87.6	no binding (tested: 100 nM)	2.15	263	698	493	43	11.1	61.4	77.7	–
C-76 (antibody, V domains shown, human IgG1) VH: not shown VL: DIVMTQSPDSLAVSLGERATINCKSSQSVLYSSNNKNYLAWYQQKPGQAPRLLIYGASSRATGIPDRFSGSGSGTDFTLTISRLEPEDFAVYYCQQDYNSPLTFGGGTKVEIK	85.5	92.4	no binding (tested: 100 nM)	3.01	185	654	455	43	13.5	85.5	87.7	–
C-72 (antibody, V domains shown, human IgG1) VH: QVQLVESGGGVVQPGRSLRLSCAASGFTFSSYGMHWVRQAPGKGLEWVAVIWYDGSNKYYADSVKGRFTISRDNSKNTLYLQMNSLRAEDTAVYYCAKEGGTYSDDFDLWGGGTLVTVSS VL: DIQMTQSPSSVSASVGDRVTITCRASQGISSWLAWYQQKPGKAPKLLIYAASSLQSGVPSRFSGSGSGTDFTLTISSLQPEDFATYYCQQASSFPLTFGGGTKVEIK	43.4	41.8	no binding (tested: 100 nM)	1.77	330	118	657	742	7.7	36.2	18.9	47.5

Stronger by Kd [3], values ahead:

Percent CD33 Surface Expression, DC % CD33 [1] [%]	Percent CD33 Surface Expression, Monocyte % CD33 [1] [%]	binding result [2]	Kd [3] [nM]	T cell MFI [4]	Monocyte MFI [5]	Macrophage MFI [6]	DC MFI [7]	Kd [8] [nM]	Percent RBC Binding to CD33 [9] [%]	Percent RBC Binding to CD33 [10] [%]	Percent CD33 Surface Expression, Macrophage % CD33 [1] [%]	Binder
18.5	35.4	no binding (tested: 100 nM)	1.51	329	987	1260	151	5.74	17.2	6.8	41.3	C-90 (antibody, V domains shown, human IgG1) VH: EVQLVESGGGLVQPGGSLRLSCAASGFTFSSYWMSWVRQAPGKGLEWVANINQDGSEKYYVDSVKGRFTISRDNAKNSLYLQMNSLRAEDTAVYYCAREAGAVTGYRWFDPWGQGTLVTVSS VL: DIQMTQSPSSLSASVGDRVTITCRASQSISSYLNWYQQKPGKAPKLLIYGASSLQSGVPSRFSGSGSGTDFTLTISSLQPEDFATYYCQQQYLTPLTFGGGTKVEIK
88.7	85.9	no binding (tested: 100 nM)	1.04	399	686	778	46	4.63	72.6	67	–	C-75 (antibody, V domains shown, human IgG1) VH: EVQLLESGGGLVQPGGSLRLSCAASGFTFSSYAMSWVRQAPGKGLEWVSAISASGGSTYYADSVKGRFTISRDNSKNTLYLQMNSLRAEDTAVYYCARLHMTGTASSGMDVWGQGTTVTVSS VL: DIVMTQSPDSLAVSLGERATINCKSSQSVLYSSNNKNYLAWYQQKPGQAPRLLIYGASSRATGIPDRFSGSGSGTDFTLTISRLEPEDFAVYYCQQDYSSPLTFGGGTKVEIK
66.9	96.5	no binding (tested: 100 nM)	1.01	52.5	87	626	814	3.29	122	108	97	C-7 (antibody, V domains shown, human IgG1) VH: not shown VL: DIQMTQSPSTLSASVGDRVTITCRASQSISSWLAWYQQKPGKAPKLLIYDASSLESGVPSRFSGSGSGTEFTLTISSLQPDDFATYYCQQARSYPPTFGGGTKVEIK
